In article PMC3814348 (PLoS Pathogens, 2013):

Molecular target: Hrs, purified recombinant ( (human, mouse or zebrafish …, UniProt O14964 1-777))
Test: pull-down
Settings: both partners purified

B1: EsxGMt EsxHMt-6XHis heterodimer (complex)
chain 1: MSLLDAHIPQLVASQSAFAAKAGLMRHTIGQAEQAAMSAQAFHQGESSAAFQAAHARFVAAAAKVNTLLDVAQANLGEAAGTYVAADAAAASTYTGF
chain 2: MSQIMYNYPAMLGHAGDMAGYAGTLQSLGAEIAVEQAALQSAWQGDTGITYQAWQAQWNQAMEDLVRAYHAMSSTHEANTMAMMARDTAEAAKWGG
  Kd: 5.4 µM
